From patent US20250101127A1 (CYRON THERAPEUTICS, published 2025)

Target: T1, MUC1 (Mucin-1) as expressed by human cancer cell lines (human, UniProt P15941 24-1255)
T1 construct: whole, on cells; Endogenous antigen on the cell surface (flow cytometry) or in cell lysates (immunoprecipitation, western blot); also called MUC1 antigen; antigen recognized by the MP1 monoclonal antibody
Experiment: flow cytometry, SiHa cells; grade = percent MP1 positive cells (+: 20-30%)
Experimental: The MP1 monoclonal antibody of the present invention was added to the cultured various cancer cells, respectively, and they were reacted at 4° C. for 30 minutes and then washed with PBS, and FITC-conjugated goat anti mouse IgG (Jackson ImmunoResearch, USA) was added and they were cultured at 4° C. for 15 minutes. They were washed with PBS again, and then were analyzed with FACS caliber (Becton Dickinson, USA) to confirm the reactivity of the MP1 antibody in various solid cancer cell lines (Table 9).

T1 sequence (P15941 24-1255): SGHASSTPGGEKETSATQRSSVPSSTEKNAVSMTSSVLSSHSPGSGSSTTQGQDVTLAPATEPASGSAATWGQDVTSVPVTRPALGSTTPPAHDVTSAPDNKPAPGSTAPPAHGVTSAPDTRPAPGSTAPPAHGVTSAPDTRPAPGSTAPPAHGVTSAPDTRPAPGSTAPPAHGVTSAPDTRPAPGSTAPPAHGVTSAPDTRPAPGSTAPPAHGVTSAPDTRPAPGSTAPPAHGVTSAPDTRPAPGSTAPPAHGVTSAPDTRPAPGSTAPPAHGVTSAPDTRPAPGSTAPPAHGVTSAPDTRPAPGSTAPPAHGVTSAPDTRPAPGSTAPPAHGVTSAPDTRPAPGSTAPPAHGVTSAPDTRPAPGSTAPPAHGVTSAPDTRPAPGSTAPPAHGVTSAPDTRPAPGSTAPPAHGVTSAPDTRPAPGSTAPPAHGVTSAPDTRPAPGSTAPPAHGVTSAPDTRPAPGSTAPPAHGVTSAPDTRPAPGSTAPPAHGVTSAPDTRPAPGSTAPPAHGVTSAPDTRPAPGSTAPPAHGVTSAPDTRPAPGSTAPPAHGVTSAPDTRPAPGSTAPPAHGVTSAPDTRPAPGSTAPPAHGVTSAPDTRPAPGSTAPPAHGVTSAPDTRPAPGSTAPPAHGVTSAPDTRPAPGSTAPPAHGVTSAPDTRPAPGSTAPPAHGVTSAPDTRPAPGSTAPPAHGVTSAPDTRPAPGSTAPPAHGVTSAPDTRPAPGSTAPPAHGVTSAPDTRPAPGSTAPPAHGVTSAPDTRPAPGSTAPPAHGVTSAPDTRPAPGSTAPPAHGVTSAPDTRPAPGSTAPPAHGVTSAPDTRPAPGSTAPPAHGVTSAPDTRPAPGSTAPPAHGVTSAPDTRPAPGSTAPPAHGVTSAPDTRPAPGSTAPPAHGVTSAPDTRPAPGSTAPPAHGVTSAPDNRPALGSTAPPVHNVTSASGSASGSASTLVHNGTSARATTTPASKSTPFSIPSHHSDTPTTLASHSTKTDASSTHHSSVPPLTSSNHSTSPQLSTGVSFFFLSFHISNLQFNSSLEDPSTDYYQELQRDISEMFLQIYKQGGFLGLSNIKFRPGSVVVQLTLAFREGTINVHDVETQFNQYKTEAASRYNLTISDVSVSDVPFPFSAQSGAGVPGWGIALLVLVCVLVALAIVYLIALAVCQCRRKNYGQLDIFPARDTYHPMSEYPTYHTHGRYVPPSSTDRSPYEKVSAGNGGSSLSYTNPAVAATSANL

B1: MP1 monoclonal antibody (antibody, V domains shown)
VH: EVKVDETGGGLVQPGRPMKLSCVVSGITFSDYWMNWVRQSPEKGLEWVAQIRNKPYNYETYYSNSVKGRFTISRDDSKSSVYLQMNNLRAEDMGIYYCTWAMITSDGYAMDYWGQGTSVTVSS
VL: DIVMSQSPSSLAVSVGEKVTLICKSSQSLLLSSNQKNYLAWYQQKPGQSPKLLIYWASTRESGVPDRFTGSGSGTDFTLTINSVKAEDLAVYYCQQCFSYPLTFGAGTKLELK
notes: also called mouse antibody MP1; MP1 Ab
binding result: binds
